Key:
Mdm2 = Mdm2 (Homo sapiens, UniProt Q00987); assay: Pulse-chase half-life of Mdm2 wt or S218A in normal human fibroblasts; type: cell-based; design: Normal human fibroblasts (TIG) were transfected with HA-Ub and wt or mutant Ubc9 plasmids as indicated; endogenous in cells; host or cells: normal human fibroblasts (TIG)
Protocol: FIG. 16A-16F. A. Activation of p38 increases Mdm2 ubiquitination in vivo. EJ cells were transfected with indicated plasmids. 36 h after transfection cells were harvested and Mdm2 was immunoprecipitated (2A10 antibodies). […] Middle panels show expression levels of Mdm2 and p19^ARF. Lower panels depict phospho-and total p38 levels. B. Mutation at Ser218 of Mdm2 abolishes p38 induced Mdm2 ubiquitination. Normal human fibroblasts were transfected with indicated plasmids. 36 h after transfection cells were harvested and lysed. Mdm2 was immunoprecipitated and proteins were separated on a 8% SDS-PAGE. […] C. Mutation at Ser218 of Mdm2 abrogates p19^ARF-induced Mdm2 degradation. […] Upper panels depict Mdm2-Sumo conjugates (detected via Sumo-1 anitbodies), as well as the 75 kD and 90 kD forms of Mdm2 (detected via Mdm2 antibodies). […] To monitor possible changes in amount of p19 bound to Mdm2 association was monitored using normalized Mdm2 levels at the indicated time-points after UV-treatment.
Normal human fibroblasts (NHF) were transfected with wt or S218A forms of Mdm2 expression vectors (4 μg). ^35S-methionine (1 mCi) was added to the cell cultures 24 h after transfection for 5 h (pulse) followed by chase (2 mM cold methionine) for the indicated time points. […] Immunoprecipated Mdm2 was washed, separated on 10% SDS-PAGE, and analyzed by autoradiography.

p53 = p53 ubiquitination and p53 level in EJ cells; type: cell-based, mouse
From the text: FIG. 14A-14E. A. In vitro ubiquitination of Mdm2 is inhibited by p19^ARF. GST-Mdm2 was subjected to an in vitro ubiquitination reaction using purified forms of E1, E2 and Ub-HA in the presence of ATP. Addition of bacculovirus-purified p19^ARF at the indicated concentrations blocked Mdm2 ubiquitination. Glutathione bead-coupled GST-Mdm2 in its ubiquitinated or non-ubiquitinated forms was washed and analyzed on immunoblots using antibodies to HA (upper panel). Middle panel depicts the level of Mdm2 expression and the lower panel, the level of p19^ARF added to the reaction. B. p19^ARF expression increases Mdm2 self-ubiquitination in EJ cells. EJ cells were transfected with the indicated plasmids. Cells were harvested 36 h later and proteins ([…]) were immunoprecipitated using Mdm2 antibodies (2A10). Immunoprecipitated material was washed and proteins loaded onto 10% SDS-PAGE, followed by immunoblot analysis with HA-antibodies to detect covalent HA-ubiquitin conjugation to Mdm2 (upper panel). Middle panel depicts level of immunoprecipitated Mdm2. Lower panel represents western analysis of p19^ARF expression levels. C. In vitro ubiquitination of Mdm2 in the presence of p19^ARF and protein extracts. […] The level of p53 immunoprecipitated was monitored in immunoblots using polyclonal antibodies to p53 (middle). […]

Mdm2, sequence (Q00987 whole entry): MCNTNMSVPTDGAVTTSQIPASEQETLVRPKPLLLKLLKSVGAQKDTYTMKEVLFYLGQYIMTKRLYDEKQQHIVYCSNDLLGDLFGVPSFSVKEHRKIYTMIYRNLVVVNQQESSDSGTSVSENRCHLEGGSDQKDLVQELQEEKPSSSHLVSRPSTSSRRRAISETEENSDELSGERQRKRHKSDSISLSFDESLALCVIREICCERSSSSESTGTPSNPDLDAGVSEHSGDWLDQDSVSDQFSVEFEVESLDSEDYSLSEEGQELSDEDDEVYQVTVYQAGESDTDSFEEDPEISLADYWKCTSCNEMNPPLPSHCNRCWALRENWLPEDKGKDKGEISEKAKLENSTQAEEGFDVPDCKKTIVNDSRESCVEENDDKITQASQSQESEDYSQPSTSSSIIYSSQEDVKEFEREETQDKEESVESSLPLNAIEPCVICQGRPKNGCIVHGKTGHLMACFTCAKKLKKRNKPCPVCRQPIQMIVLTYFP

B1: p19^ARF: Mdm2-regulating protein; in vitro translated, bacculovirus-expressed or transfected (protein)
chain: MGRRFLVTVRIQRAGRPLQERVFLVKFVRSRRPRTASCALAFVNMLLRLERILRRGPHRNPGPGDDDGQRSRSSSSAQLRCRFELRGPHYLLPPGARRSAGRLPGHAGGAARVRGSAGCARCLGSPAARLGPRAGTSRHRAIFAFRWVLFVFRWVVFVYRWERRPDRRA
- effect on half-life of wt Mdm2 (Mdm2): efficiently shorten Mdm2 half-life
- levels of p53 (p53): elevated levels of p53
- degree of p53 ubiquitination (p53; Flag-Mdm2, wt p53, HA-Ub, p19ARF constructs 1 μg each): noticeable decrease in the degree of p53 ubiquitination

From patent US20020031818A1, “Modification of Mdm2 activity” (priority 2000, published 2002)
